# B1: saposin C: Human saposin C, about 8–13 kDa protein proteolytically generated from prosaposin; obtained from Professor K. Sandoff (protein, UniProt P07602 311-390, looked up)
# Saposin-C: SDVYCEVCEFLVKEVTKLIDNNKTEKEILDAFDKMCSKLPKSLSEECQEVVDTYGSSILSILLEEVSPELVCSMLHLCSG
# modifications: Saposin-C
# notes: Human saposin C, about 8–13 kDa protein proteolytically generated from prosaposin; obtained from Professor K. Sandoff
# Tests used:
# [1] = tested on: prosaposin; details: LNCaP and normal prostate stromal cells; 0.1, 1, 10 nM; 24 h
# [2] = tested on: enzymes in the MAPK signaling transduction pathway (MEK1/2, p42/44, p90RSK); experiment: Activation of MAPK signaling transduction pathway (phospho-specific Western); type: cell-based, human; details: PC-3, DU-145, LNCaP
# Experimental: (§1) Cells were grown to 80% confluency by incubating in their respective serum-free basal media for 18 h. For each cell line, tissue culture plates were pre-treated with a specific MEK1/2 inhibitor (U0126, Cat.# 9903, Cell Signaling Technology, Beverly, Mass.) at 10 μM for 1.5 h. Saposin C and TX14A were added at the following concentrations: 0.1, 1.0, and 10 nM. The cells were then incubated at 37° C. for 5 min, washed, and lysed on ice in RIPA buffer supplemented with protease inhibitors and 1 mM sodium orthovandate, as described in S. Koochekpour et al., 1999. Clarified cell lysates were subjected to Western analysis using phospho-specific antibodies against three enzymes in the MAPK Pathway: MEK1/2 (Ser217/22; Cat.# 9121; Cell Signaling Technology, Beverly, Mass.); p90RSK (p90^rsk, Ser380, Cat# 9341, Cell Signaling Technology); and p42/44 MAP Kinases (p44^MAPK, p42^MAPK; Thr202/Tyr204, Cat# 9102; Cell Signaling Technology). Primary antibodies against p42/44 MAP kinase (Cell Signaling Technology) or against tubulin (Cat# 12463, Santa Cruz Biotechnology, Santa Cruz, Calif.) were used as controls. To quantify the difference between the control and the various treatments, the autoradiograms were read on a densitometer, an Alpha Imager 2000 (Alpha Innotech Corp., San Leandro, Calif.).
# [3] = tested on: normal prostate stromal cells; details: NaSe 10 μM, 48 h
# [4] = tested on: soluble uPA receptor (uPAR); experiment: Western blot of supernatant for soluble uPAR; type: cell-based, human; details: normal prostate stromal cells, PC-3 and DU-145; 0.1, 1.0, 10 nM; 24 h
# Experimental: (§2) To investigate the effect of saposin C on expression of both urokinase-type plasminogen activator (uPA) and the soluble uPA receptor (uPAR), normal prostate stromal cells and prostatic cancer cells (PC-3, DU-145, LNCaP) were cultured in media as described in Example 1. The cells were cultured in the preferred media up to 80% confluency, then washed twice with PBS, and incubated for 24 h at 37° C. in serum-free medium supplemented with either 0, 0.1, 1.0 or 10 nM saposin C. At the end of the incubation period, the cell-conditioned medium (Supernatant) was collected. The Supernatants were concentrated 5-fold using Centriprep-3 concentrator (Amikon, Beverley, Mass.), and stored frozen in −70° C. until use.
# (§3) A Western blot analysis was performed (as in Examples 2 and 6) using commercially available anti-uPA and anti-uPAR antibodies (Cat# 389 and Cat# 399R, respectively; American Diagnostica Inc., Greenwich, Conn.).
# [5] = tested on: colon cancer cells (LoVo); experiment: Transwell Matrigel cell invasion assay; type: cell-based, human; details: saposin C 0.1-10 nM
# Experimental: (§4) To test the effect of saposin C on prostatic cell migration and invasion, cell migration and invasion assays were performed using 24-well transwell units with 8-μm polycarbonate filters (Costar, purchased from Becton Dickinson, Bedford, Mass.), as described in S. Koochekpour et al., “Met and […] expression in human glioma,” Cancer Res., vol. 57, pp. 5391–5398 (1997). For invasion assays, transwell filters were coated with 20 μg GFR-Matrigel matrix (Becton Dickenson) in 100 μl of basal medium, and left to air dry overnight. To the lower compartment of each transwell unit, was added 400 μl of basal media supplemented with 0.5% FBS and 0.1% BSA. Saposin C was then added to the lower compartment in the following concentrations: 0 (control), 0.1 nM, 1 nM, and 10 nM.
# (§5) Cultured cells were freshly harvested by trypsinization and counted. Approximately 5000 cells were resuspended in 100 μl of serum-free medium With 0.1% BSA, and were placed in the upper compartment of the transwell unit. After 16 h of incubation at 37° C., cells in both the upper and lower compartments were fixed in methanol and stained with Diff-Quick (Dade, Aguada, Puerto Rico). Non-migratory cells in the upper surface of the filter were removed by wiping with a cotton swab. Cells under the filter were counted. The results of cell migration are shown in FIG. 4A; and of cell invasion in FIG. 4B. Each bar represents the mean +/−SEM of three duplicate experiments, and samples from each experiment were counted at least three times.
# (§6) To test the effect of saposin C on migration and invasion of non-prostatic cancer cells, assays using human breast cancer cell line (MCF-7), colon cancer cell line (LoVo), and lung cancer cell line (H1299) were performed in 24-well transwell units with polycarbonate filters as described above in Example 5.
# [6] = tested on: lung cancer cells (H1299); experiment: Transwell Matrigel cell invasion assay; type: cell-based, human; details: saposin C 0.1-10 nM
# Experimental: as §4, §5, §6
# [7] = tested on: breast cancer cells (MCF-7); experiment: Transwell Matrigel cell invasion assay; type: cell-based, human; details: saposin C 0.1-10 nM
# Experimental: as §4, §5, §6
# [8] = tested on: normal prostate epithelial cells; experiment: Cell proliferation (living cells, trypan blue exclusion); type: cell-based, human; details: 0.1, 1.0, 10 nM, 2 days
# Experimental: To test the effects of saposin C and TX14A on cell proliferation, various cells were cultured as described in Example 1, incubated in only fresh media, or in media supplemented with saposin C or with TX14A at concentrations of 0.1, 1.0, and 10 nM. After incubation for 2 days, the number of living cells was determined by trypan blue exclusion method, as described above in Example 3. The results are shown in FIG. 3, in which each point represents the mean +/−SEM of three duplicate experiments.
# [9] = tested on: DU-145 cells; experiment: Protection from NaSe-induced cell death (trypan blue exclusion); type: cell-based, human; details: NaSe 10 μM, 48 h
# [10] = tested on: normal prostate epithelial cells; experiment: as above; type: cell-based, human; details: NaSe 10 μM, 48 h
# [11] = tested on: non-prostatic cancer cells (MCF-7, LoVo, H1299); experiment: Transwell migration and invasion, all cells tested; type: cell-based, human
# Experimental: as §4
# as §5, with “Non-migratory cells in the upper surface of the filter were removed by wiping with a cotton swab.” left out, “The results of cell migration are shown in FIG. 4A; and of cell invasion in FIG. 4B.” left out, “times. […]” for “times.”
# [12] = tested on: prostate cancer cells and normal prostate cells; experiment: Protection from NaSe-induced cell death, cell lines overall; type: cell-based, human; details: dose dependent; NaSe 10 μM; 48 h
# [13] = tested on: pro-cathepsin D and cathepsin D; experiment: Western blot of culture supernatant for cathepsin D expression; type: cell-based, human; details: LNCaP and normal prostate stromal cells; 0.1, 1, 10 nM; 24 h; compared to control (0 nM)
# [14] = tested on: PC-3 cells; experiment: Protection from NaSe-induced cell death (trypan blue exclusion); type: cell-based, human; details: NaSe 10 μM, 48 h
# [15] = tested on: colon cancer cells (LoVo); experiment: Transwell cell migration assay; type: cell-based, human; details: saposin C 0.1-10 nM
# Experimental: as §4, §5, §6
# [16] = tested on: lung cancer cells (H1299); experiment: Transwell cell migration assay; type: cell-based, human; details: saposin C 0.1-10 nM
# Experimental: as §4, §5, §6
# [17] = tested on: breast cancer cells (MCF-7); experiment: Transwell cell migration assay; type: cell-based, human; details: saposin C 0.1-10 nM
# Experimental: as §4, §5, §6
# [18] = tested on: prostate (PC-3, DU-145, LNCaP), breast (MCF-7), lung (H1299), and colon (LoVo) cancer cells; experiment: Cytotoxicity / cell number, all tested cancer cell lines incl. competitive inhibition; type: cell-based, human
# Experimental: The conjugate of saporin and TX14A was made by special order by Advanced Targeting Systems with a 1:1 molar ratio between the peptide and saporin. Blank-SAP, a non-targeted saporin conjugate, was purchased as a control (ATS, Catalogue# IT-21). Exponentially growing cells were trypsinized and cultured in their complete culture media (1000/well in 96-well plates) as described in Example 1. After 1 day of incubation at 37° C., the culture media were supplemented with either TX14A, saporin, TX14A-saporin (conjugate), Saposin C, TX14A-saporin plus TX14A, or TX14A-Saporin plus Saposin C at the following concentrations: 0, 0.1, 1, 10, 100, 1000 nM. Three days after treatment, cell death was monitored with a Promega (Madison, Wis.) cell titer cytotoxicity kit. Cell counts were normalized to the media controls.
# [19] = tested on: PSA; experiment: Western blot of supernatant for PSA expression in LNCaP cells; type: cell-based, human; details: 24 h, at concentrations as low as 0.1 nM
# Experimental: To investigate the effect of saposin C on the expression of PSA in LNCaP cells, cells were cultured in the preferred media up to 80% confluency, and then washed twice with PBS. The cells were incubated in serum-free medium supplemented with either testosterone (T), dihydrotestosterone (DHT), saposin C or TX14A at the following concentrations: 0, 0.1, 1 or 10 nM. […] The supernatants were concentrated 5-fold using Centriprep-3 concentrator (Amikon, Beverley, Mass.) and stored frozen in −70° C. until use. A Western blot analysis was performed (as in Examples 2 and 6) using commercially available anti-PSA (Santa Cruz Biotechnology, Santa Cruz, Calif.).
# [20] = tested on: DU-145; experiment: Transwell Matrigel cell invasion assay; type: cell-based, human; details: saposin C 0.1-10 nM, 16 h
# Experimental: as §4, §5
# [21] = tested on: LNCaP; experiment: Transwell Matrigel cell invasion assay; type: cell-based, human; details: saposin C 0.1-10 nM, 16 h
# Experimental: as §4, §5
# [22] = tested on: PC-3; experiment: Transwell Matrigel cell invasion assay; type: cell-based, human; details: saposin C 0.1-10 nM, 16 h
# Experimental: as §4, §5
# [23] = tested on: p42/44 MAP Kinases; experiment: Phospho-specific Western, p42/44 MAP kinases; type: cell-based, human
# Experimental: as §1
# [24] = tested on: p90RSK; experiment: Phospho-specific Western, p90RSK; type: cell-based, human
# Experimental: as §1
# [25] = tested on: MEK1/2; experiment: Phospho-specific Western, MEK1/2; type: cell-based, human; details: normal prostate epithelial cells; 0.1, 1.0, 10 nM
# Experimental: as §1
# [26] = tested on: urokinase-type plasminogen activator (uPA); experiment: Western blot of supernatant for uPA; type: cell-based, human; details: normal prostate stromal cells, PC-3 and DU-145; 0.1, 1.0, 10 nM; 24 h
# Experimental: as §2, §3
# [27] = tested on: DU-145; experiment: Transwell cell migration assay; type: cell-based, human; details: saposin C 0.1-10 nM, 16 h
# Experimental: as §4, §5
# [28] = tested on: LNCaP; experiment: Transwell cell migration assay; type: cell-based, human; details: saposin C 0.1-10 nM, 16 h
# Experimental: as §4, §5
# [29] = tested on: normal primary prostate epithelial cells; experiment: Transwell cell migration assay; type: cell-based, human; details: presence or absence of saposin C
# Experimental: as §4, §5
# [30] = tested on: PC-3; experiment: Transwell cell migration assay; type: cell-based, human; details: saposin C 0.1-10 nM in lower compartment, 16 h
# Experimental: as §4, §5
# [31] = normal prostate epithelial cells, decreased at 0.1 nM, increased at 1.0 nM, decreased at 10 nM
molecule,measurement,setting,value
"C[C@]12CC[C@H]3[C@@H](CCC4=CC(=O)CC[C@@]43C)[C@@H]1CC[C@@H]2O [T, testosterone]",expression of prosaposin,[1],stimulated the expression
"C[C@]12CCC(=O)C[C@@H]1CC[C@@H]1[C@@H]2CC[C@]2(C)[C@@H](O)CC[C@@H]12 [DHT, dihydrotestosterone]",expression of prosaposin,[1],stimulated the expression
"N#CC(=C(/N)Sc1ccccc1N)/C(C#N)=C(\N)Sc1ccccc1N [U0126, reference compound]",inhibition of saposin C / TX14A activation of MAPK pathway enzymes,"[2]; U0126 10 μM pre-treatment 1.5 h, stromal",substantially inhibited
"O=[Se]([O-])[O-].[Na+].[Na+] [NaSe, sodium selenium]",toxic effect of NaSe,[3],resistant
B1,extracellular level of uPAR,[4],increased
same,increase of invasion,[5],16–37%
same,increase of invasion,[6],19–195%
same,increase of invasion,[7],22–36%
same,effect on growth,[8],did not show any effect
same,"protective effect, difference in the percent cell death with and without saposin C",[9],50%
same,protection from cell death,[10],Neither Saposin C nor TX14A protected
same,concentration at which the highest migration and invasion was seen,[11],1 nM
same,degree of cell death in the presence of NaSe,[12],decreased the degree of cell death
same,expression of pro-cathepsin D (50 kDa band) and active mature cathepsin D (36 kDa band),[13],stimulate expression
same,"protective effect, difference in the percent cell death with and without saposin C",[14],55%
same,increase of migration,[15],22–59%
same,increase of migration,[16],44–460%
same,increase of migration,[17],12–59%
same,cell proliferation of all cancer cell lines,"[18]; 0.1-1000 nM, three days, much greater effect in PC-3 and DU-145",increased
same,effect on TX14A-saporin cytotoxicity in competitive inhibition assays,"[18]; equimolar mixture with TX14A-saporin, simultaneous treatment",inhibited in a dose dependent manner
same,extracellular level of PSA,[19],significantly increased
same,stimulation of invasion,[20],70%
same,stimulation of invasion,[21],48%
same,stimulation of invasion,[22],100%
same,pattern of p42/44 phosphorylation activity,[23]; [31],biphasic pattern
same,increase in p42/44 phosphorylation as compared to the control,"[23]; normal prostate stromal cells, densitometry",15 fold
same,pattern of p90RSK phosphorylation activity,[24]; [31],biphasic pattern
same,pattern of p90RSK activity,[24]; normal prostate stromal cells,biphasic pattern
same,expression of MEK1/2 (phospho-MEK1/2 Western),[25],dose-dependent increase
same,extracellular level of uPA,[26],increased
same,stimulation of migration,[27],140%
same,stimulation of migration,[28],50%
same,migration through the filter,[29],neither migrated through the filter
same,stimulation of migration,[30],more than 300%
same,activation of the enzymes in the MAPK signaling transduction pathway,"[2]; normal prostate stromal cells, nanomolar concentrations, 5 min",activated

# Reference: US7166691B2, “Saposin C and receptors as targets for treatment of benign and malignant disorders” (priority 2002, dated 2007)
